For 2 substances, stoichiometry N and Kd results are on record in paper PMC3919030.

Experiment [1] deals with Acidianus hospitalis Vps4 (AhosVps4, wild type, full length) (Acidianus hospitalis). The experiment in a line: SEC. For orientation: Size exclusion chromatography separates by hydrodynamic size, large species first.
The target of experiment [2] is Vps4p (Saccharomyces cerevisiae) (UniProt P52917). The settings on record: cited from earlier work.

pKd: −log10 of the molar value.

Chain of Vta1p (Q06263 whole entry): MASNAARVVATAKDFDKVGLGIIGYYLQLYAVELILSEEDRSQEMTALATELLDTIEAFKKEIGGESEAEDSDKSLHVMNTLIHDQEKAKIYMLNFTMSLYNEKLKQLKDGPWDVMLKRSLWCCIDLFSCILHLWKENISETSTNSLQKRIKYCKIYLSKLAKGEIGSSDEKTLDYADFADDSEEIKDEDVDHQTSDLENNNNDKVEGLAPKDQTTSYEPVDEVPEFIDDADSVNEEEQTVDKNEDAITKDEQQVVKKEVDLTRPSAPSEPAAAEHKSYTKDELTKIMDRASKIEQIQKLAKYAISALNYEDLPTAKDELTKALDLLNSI
Chain of Vps4p (Saccharomyces cerevisiae) (P52917 whole entry): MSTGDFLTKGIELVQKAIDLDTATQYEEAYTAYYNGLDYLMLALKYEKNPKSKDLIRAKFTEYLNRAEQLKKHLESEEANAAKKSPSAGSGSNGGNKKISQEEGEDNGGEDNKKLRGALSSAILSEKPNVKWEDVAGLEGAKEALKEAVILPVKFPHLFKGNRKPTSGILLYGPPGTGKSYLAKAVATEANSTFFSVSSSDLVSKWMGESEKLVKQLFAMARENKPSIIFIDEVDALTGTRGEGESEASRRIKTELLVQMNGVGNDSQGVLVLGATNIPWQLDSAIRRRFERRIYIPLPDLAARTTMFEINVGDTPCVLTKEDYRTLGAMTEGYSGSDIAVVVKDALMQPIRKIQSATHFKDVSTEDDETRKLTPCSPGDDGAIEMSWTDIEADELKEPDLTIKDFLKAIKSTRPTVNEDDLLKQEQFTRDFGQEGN

As to “Acidianus hospitalis Vps4 (AhosVps4, wild type, full length) (enzyme)”, the stoichiometry N (usually a count of units in the complex or per binding partner) in experiment [1] was found to be 6. Consider Vta1p (from UniProt Q06263), for which the negative-log Kd (pKd) (usually the negative decadic logarithm of the Kd, by convention in mol/L) in experiment [2] was 4.77.
